target: T1, YtrASa (Sulfolobus acidocaldarius) (UniProt Q4J7S4); assay: EMSA; details: 20 mM Tris-HCl pH 8.0, 1 mM MgCl2, 0.1 mM DTT, 12.5% glycerol, 50 mM NaCl, 0.4 mM EDTA, 37 C; ~0.1 nM 32P-DNA, excess non-specific competitor DNA; 6% native …
T1 sequence: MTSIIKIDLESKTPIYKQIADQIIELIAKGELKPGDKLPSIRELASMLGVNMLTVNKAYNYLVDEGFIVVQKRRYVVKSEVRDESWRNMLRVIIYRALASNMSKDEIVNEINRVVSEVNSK

Substance | binding | Kd
AAAATGGGAGAGTAATCGGTTTTTATTGAGACTTCGCAATACGATATATATGGATACAAAAGTTGTAATTAGAAGAGATCAGTGGAAACCAGGATCGGCGATGGAAATAAAGCGAGGCGT (double strand) [Saci_1234 target] | no binding | –
AACTGCGGTGAATAAAGTAGGGTGTTTGATTTTTGCCAAAGAAGAGGGAGAATAGAGGAAGAAGAAAGGGCGACAAAGGACACGTTGGTAGCATACATTGTGACCA (double strand) [Saci_1554 target] | binds more weakly | –
AGCAACACCAAAGGATTGAATTTCATTTCTATCCCTGTTTGACTTAAAGCAAGACTCTTGAATAAAAAATATAATTTAGAGGTTTACTAAAAACAAACCGTGAACGTAGGAAGA (double strand) [Saci_0871 target] | no binding | –
CTTACCTTTTATAGTAGGTAAATAAGGTTTTTATTCCCCTAAATCATATATTTGCTATATGACAAGTATAATAAAAATCGACCTAGAGTCCAAGACTCCCATC (double strand) [ytrASa (Saci_1851) target, 102 bp] | binds | 37 nM
GGGAAAGGATATTGGGGAAATATTAAAAATACTGGGTTGAAGTTTAAACTTGTGTTTAAACAACTAATAATTAAATATTTTGGGATAATATCTGTTGTAATCCTTGCAACAATAATCTC (double strand) [Saci_0421 target] | no binding | –
GTTTTGAGTACAACCTAACCCATTATACTAAATAAGGTTTATTTATTTTAGTAACTTTTAGAAATTATGCAAGATCTTTTTTGGGAAAGTGCAAATTGCCTTGAGGGAAAAGGTCTGCAA (double strand) [Saci_2168 target] | no binding | –
Saci_2078 target, 100 bp | – | 34 nM
TCCTGAAGGCCTAAAAGAGTACATTCTAGACCTTTCCGCATAAAACTTAGGTAGGGCTAGGCATAATGCAAAAGCCCTCAAACTTTTCATTAAAGAAGTGATT (double strand) [Saci_0677 target] | no binding | –
TCGTCAACAACCTATATAAGCCATAACTTTAAATAAGGATATTGTTATATTTGTTATATGACAAATATGTTTTCATTACTCTACCCGCTAATCTCCATAG (double strand) [Saci_2078 target, 100 bp] | – | 34 nM
ytrASa (Saci_1851) target, 102 bp | – | 37 nM

target: T1, YtrASa (Sulfolobus acidocaldarius); assay: DNase I footprinting; details: 20 mM Tris-HCl pH 8.0, 1 mM MgCl2, 0.1 mM DTT, 12.5% glycerol, 50 mM NaCl, 0.4 mM EDTA, 37 C; ~0.1 nM 32P-DNA, excess non-specific competitor DNA; 6% native …

Substance | binding
CTTACCTTTTATAGTAGGTAAATAAGGTTTTTATTCCCCTAAATCATATATTTGCTATATGACAAGTATAATAAAAATCGACCTAGAGTCCAAGACTCCCATC (double strand) [ytrASa (Saci_1851) target, 102 bp] | binds
TCGTCAACAACCTATATAAGCCATAACTTTAAATAAGGATATTGTTATATTTGTTATATGACAAATATGTTTTCATTACTCTACCCGCTAATCTCCATAG (double strand) [Saci_2078 target, 100 bp] | binds

Reference: publication PMC6746942
